This note sets out measurements from PMC5559459, “Disruption of the structural and functional features of surfactant protein A by acrolein in cigarette smoke” (Scientific Reports, 2017).

B1: acrolein (100 µM)-modified recombinant human SP-A (natural protein)
chain: not shown
modifications: acrolein adducts; at a 20:1 molar ratio of acrolein to SP-A six modified residues were identified: His39, His116, Cys155, Lys180, Lys221, Cys224
notes: pulmonary surfactant protein A, human SP-A1 cDNA expressed and secreted by CHO-K1 cells; Chemically modified form of m1; the sites were mapped by MS on a sample of 25 µM hSP-A with 500 µM acrolein (same 20:1 ratio); also called acrolein (100 μM)-modified SP-A; hSP-A pre-incubated with 100 µM acrolein; source: CHO-K1 cells, purified (mannose-Sepharose); 5 µM hSP-A incubated with 100 µM acrolein in …
B2: cigarette smoke extract (CSE)-modified recombinant human SP-A (natural protein)
chain: not shown
modifications: adducts from cigarette smoke extract (acrolein-lysine adducts, aldehyde adducts, modified free thiols); sites not mapped
notes: pulmonary surfactant protein A, human SP-A1 cDNA expressed and secreted by CHO-K1 cells; Chemically modified form of m1; heterogeneous adducts; also called CSE-modified SP-A; hSP-A pre-incubated with CSE; source: CHO-K1 cells, purified (mannose-Sepharose); 5 µM hSP-A incubated with 10% CSE in 5 mM Tris-HCl pH 7.4 at 37 °C for 4 h, then dialyzed
B3: acrolein (10 µM)-modified recombinant human SP-A (natural protein)
chain: not shown
modifications: acrolein adducts (acrolein-lysine adducts, aldehyde adducts, modified free thiols); the sites were not mapped at this 2:1 ratio
notes: pulmonary surfactant protein A, human SP-A1 cDNA expressed and secreted by CHO-K1 cells; Chemically modified form of m1; heterogeneous adducts; also called acrolein (10 μM)-modified SP-A; hSP-A pre-incubated with 10 µM acrolein; source: CHO-K1 cells, purified (mannose-Sepharose); 5 µM hSP-A incubated with 10 µM acrolein in 5 mM Tris-HCl pH 7.4 at 37 °C for 4 h, then dialyzed

In this assay the target is T1, recombinant human TLR4 (hTLR4) (human, UniProt O00206 24-631).
T1 construct: Toll-like receptor 4, human, recombinant; No catalogue number is printed; the bought protein is probably a soluble extracellular construct with a tag (surmise); source: bought: Sino Biological Inc
T1 sequence (O00206 24-631): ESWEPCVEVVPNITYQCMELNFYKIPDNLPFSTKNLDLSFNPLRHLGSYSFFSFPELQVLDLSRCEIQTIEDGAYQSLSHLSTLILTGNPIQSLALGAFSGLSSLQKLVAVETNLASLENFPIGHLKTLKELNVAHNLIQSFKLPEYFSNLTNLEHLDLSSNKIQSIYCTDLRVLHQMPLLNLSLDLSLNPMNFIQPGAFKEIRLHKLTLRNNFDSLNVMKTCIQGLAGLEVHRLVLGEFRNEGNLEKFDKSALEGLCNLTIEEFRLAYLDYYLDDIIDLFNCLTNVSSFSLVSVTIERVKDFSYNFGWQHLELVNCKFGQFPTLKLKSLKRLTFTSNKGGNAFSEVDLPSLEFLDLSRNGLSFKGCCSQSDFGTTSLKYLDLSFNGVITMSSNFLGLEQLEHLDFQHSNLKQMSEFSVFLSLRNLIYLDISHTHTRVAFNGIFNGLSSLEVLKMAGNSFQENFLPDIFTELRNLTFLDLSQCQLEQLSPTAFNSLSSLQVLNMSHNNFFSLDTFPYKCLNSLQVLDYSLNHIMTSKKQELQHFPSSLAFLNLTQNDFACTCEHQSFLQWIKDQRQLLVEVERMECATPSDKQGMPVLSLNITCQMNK
The assay is described as follows: ELISA; 500 ng hTLR4 coated on 96-well plates; 5 μg SP-A in 10 mM HEPES pH 7.4, 0.15 M NaCl, 5 mM CaCl2, 2% fatty acid-free BSA, 37 °C, 5 h; detected with anti-human SP-A polyclonal antibody and HRP anti-rabbit IgG; background (vehicle) subtracted. The following applies: both partners purified.
With B1, the “percent decrease of binding against unmodified hSP-A” value (from here on “percent decrease of binding”) came out at 72.6%.

Regarding B2, the “percent decrease of binding” value was determined as 71.9%.

Consider B3, for which the “percent decrease of binding” value turned out to be 77.1%.
